Reference: patent US20250289865A1 (TIOC THERAPEUTICS, published 2025)

Experiments:
[1] = molecular target: peptide on A2 positive (human); assay: LDH release; CD8+ T cells, E:T 1:1; AFP-negative, A2-positive control cells. No unit is printed with the value.; fusion: antibody heavy chain variable region (Gln105Cys) on the beta chain, with free VL Ala43Cys; conditions: chains Valpha:Vbeta
[2] = molecular target: T1, AFP peptide on HLA-A*02:01 (human); assay: killing
T1 peptide: FMNKFIYEI

[3] = molecular target: … short peptide (AFP 158-166) presented on the HLA-A*0201 molecule; assay: cell-based or functional assay

B1: AFP TCR (TCR, V domains shown)
Valpha: SQQGEEDPQALSIQEGENATMNCSYKDRITNLQWYRQNSGRGLVHLILIRSNEREKHSGRLRVTLDTSKKSSSLLITASRAADTASYFCATDLEAEYKYIFGTGTRLKVLA
Vbeta: ETGVTQSPTHLIKTRGQQVTLRCSSQSGHNTVSWYQQALGQGPQFIFQYYRQVANGRGNFPPRFSGLQFPNYSSELNVNALELDDSALYLCASSKDAGPVFFGQGTRLTVV
- EC50 of fusion protein in killing [1]: 2700 nM
- binding result [2]: recognises

B2: VH105-TCR β-AFP multi-domain bifunctional fusion molecule (other)
TCR alpha: SQQGEEDPQALSIQEGENATMNCSYKDRITNLQWYRQNSGRGLVHLILIRSNEREKHSGRLRVTLDTSKKSSSLLITASRAADTASYFCATDLEAEYKYIFGTGTRLKVLANIQNPDPAVYQLRDSKSSDKSVCLFTDFDSQTNVSQSKDSDVYITDKTVLDMRSMDFKSNSAVAWSNKSDFACANAFNNSIIPEDTFFCSPESS
chain: EVQLVESGGGLVQPGGSLRLSCAASGYSFTGYTMNWVRQAPGKGLEWVALINPYKGVSTYNQKFKDRFTISVDKSKNTAYLQMNSLRAEDTAVYYCARSGYYGDSDWYFDVWGCGTLVTVSSGGGGSETGVTQSPTHLIKTRGQQVTLRCSSQSGHNTVSWYQQALGQGPQFIFQYYRQVANGRGNFPPRFSGLQFPNYSSELNVNALELDDSALYLCASSKDAGPVFFGQGTRLTVVEDLKNVFPPEVAVFEPSECEISHTQKATLVCLATGFYPDHVELSWWVNGKEVHSGVSTDPQPLKEQPALNDSRYALSSRLRVSATFWQNPRNHFRCQVQFYGLSENDEWTQDRAKPVTQIVSAEAWGRAD
VL: DIQMTQSPSSLSASVGDRVTITCRASQDIRNYLNWYQQKPGKCPKLLIYYTSRLESGVPSRFSGSGSGTDYTLTISSLQPEDFATYYCQQGNTLPWTFGQGTKVEIKR
- EC50 of CD8+ T cell killing (LDH release), HepG2 (A2 positive, AFP positive) [3]: 10.5 nM
